# Measurements: patent US20060252692A1, “Inhibitors for use in hemostasis” (ZymoGenetics, Inc., priority 2002, published 2006)
# Assays:
# [1] = tested on: template bleeding time; parameters: species or system Macaca fascicularis; details: cynomolgus monkey, in vivo
# From the text: In order to evaluate one aspect of the safety of zsig37 and its effect on template bleeding time, a pre-clinical model in Macaca fascicularis was used. Time to cessation of bleeding from standardized incisions on the animal's forearm, a procedure previously described by Wu, et al., Blood, 2002, 99:3623-3628, was employed to assess the effect of zsig37 on bleeding.
# Methods. Five female and twelve male, Macaca fascicularis weighing 2.3 to 4.6 kg were used as test subjects on this project. The animals were immobilized with ketamine hydrochloride (Phoenix Scientific) administered intramuscularly at approximately 10 mg/kg. Each animal was examined, and the animal determined to be acceptable for the study. The right forearm, abdomen, ventral neck and inguinal area were shaved free of hair. The animal was transported to the surgical suite (University of Washington Regional Primate Research Center), positioned inside a heated air circulation system and placed onto isoflurane (Abbott Laboratories) inhalation anesthesia delivered through positive pressure ventilation via an endotracheal tube. […] The time to cessation of bleeding was determined and recorded for each animal. Bleeding times were determined for each animal prior to any treatment, after low molecular weight heparin (Lovenox™, Rhone Polenc, Inc.) treatment and after zsig37 treatment.
# [2] = tested on: TF-1 cells; assay: Adhesion and spreading of TF-1 cells on zsig37-coated plates; assay type: cell-based; details: plates coated in PBS vs 0.1 M NaCO3
# Method: The ability of zsig37 to stimulate adhesion and spreading of TF-1 cells was assayed as follows. A series of dilutions were prepared from C-terminal Glu-Glu-tagged zsig37, from 10 to 0.0625 ’g/ml, in either PBS or ELISA coating buffer (0.1 M NaCO3) and each was plated into a 96 well plate (Costar; Pleasanton, Calif.) at 100 μl/well. The plates were incubated at 37° C., 5% CO2 for 2 hours. The plates were then washed 3× with RPMI/10% FBS (RPMI 1640, 2 mM L-glutamine, 110 μg/ml sodium pyruvate, PSN and 10% heat inactivated fetal bovine serum) and allowed to block for 15 minutes.
# TF-1 cells (derived from acute myeloid leukemia cells) were resuspended in RPMI/10% FBS and plated into at 10,000 cells/well into the zsig37CEE-coated 96 well plates at a final volume of 120 μl/well. The plate was incubated at 37° C. under 5% CO2 for 2 hours. The plates were then washed 3× with PBS and 200 μl/well growth media (RPMI/10% FBS, 5 ng/ml GM-CSF) was added. The cells were microscopically inspected before and after the wash.
# A dye incorporation assay was also used to measure the number of adherent cells based on a colorimetric change and an increase in fluorescent signal. ALAMAR BLUE (AccuMed; Chicago, Ill.) was added to the 96 well plates and the cells were incubated at 37° C. under 5% CO2 overnight. […]
Molecule,template bleeding time vs control (1.0 mg/kg BSA) [1],adherent cells (ALAMAR BLUE dye incorporation) [2]
"ReoPro: comparator in template bleeding time study, 0.25 mg/kg [reference compound]",unable to stop their bleeding,
zsig37CEE: zsig37 polypeptide having a C-terminal Glu-Glu tag (protein) LVLSRVPHVQGEQQEWEGTEELPSPPDHAERAEEQHEKYRPSQDQGLPASRCLRCCDPGTSMYPATAVPQINITILKGEKGDRGDRGLQGKYGKTGSAGARGHTGPKGQKGSMGAPGERCKSHYAAFSVGRKKPMHSNHYYQTVIFDTEFVNLYDHFNMFTGKFYCYVPGLYFFSLNVHTWNQKETYLHIMKNEEEVVILFAQVGDRSIMQSQSLMLELREQDQVWVRLYKGERENAIFSEELDTYITFSGYLVKHATEPEEYMPME,,more adherent cells on the C-terminal Glu-Glu tagged (zsig37CEE)-PBS coated plates than on the zsig37CEE-0.1 M NaCO3 coated plates
